Data: US20230331827A1, “POTASSIUM CHANNEL INHIBITORS” (priority 2017, published 2023)
Residue numbers refer to the chain shown, from its start. Names and notes keep the numbering of the source. Where two headings read alike, the source gives them in different places.

Columns and labels:
human Kv1.1 (human) = human Kv1.1 (human) (UniProt Q09470); experiment: cell-based or functional assay
human Kv1.3 (human) [1] = molecular target: human Kv1.3 (human) (UniProt P22001); experiment: cell-based or functional assay
human ASIC1a (human) = molecular target: T1, human ASIC1a (human) (UniProt P78348); experiment: cell-based or functional assay
T1 sequence (looked up): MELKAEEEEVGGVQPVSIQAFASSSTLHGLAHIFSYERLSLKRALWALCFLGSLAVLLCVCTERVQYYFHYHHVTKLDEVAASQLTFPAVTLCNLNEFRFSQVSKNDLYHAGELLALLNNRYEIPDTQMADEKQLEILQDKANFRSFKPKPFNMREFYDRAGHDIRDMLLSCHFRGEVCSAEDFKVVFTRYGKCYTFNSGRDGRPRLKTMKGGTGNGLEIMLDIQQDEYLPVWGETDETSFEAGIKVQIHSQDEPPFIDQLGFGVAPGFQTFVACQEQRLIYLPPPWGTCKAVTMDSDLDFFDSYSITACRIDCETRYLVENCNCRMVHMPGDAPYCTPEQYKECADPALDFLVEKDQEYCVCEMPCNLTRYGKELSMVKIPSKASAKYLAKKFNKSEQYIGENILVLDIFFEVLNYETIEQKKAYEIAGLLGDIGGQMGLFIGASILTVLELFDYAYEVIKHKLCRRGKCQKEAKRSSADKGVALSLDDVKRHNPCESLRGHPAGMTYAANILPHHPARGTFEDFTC

trypsin [2] = experiment: monoclonal phage ELISA on trypsin
human Kv1.3 (human) [3] = molecular target: human Kv1.3 (human) (UniProt P22001); experiment: cell-based or functional assay; remark: listed apart in the source
trypsin [4] = experiment: flow cytometry, biotinylated trypsin/streptavidin-APC
trypsin [5] = experiment: flow cytometry of HEK293 cells displaying the scFv-Fc, 15 days post transfection after blasticidin selection; untransfected cells (panel C): Q2 0.043

Chain of human Kv1.3 (human) (P22001 whole entry): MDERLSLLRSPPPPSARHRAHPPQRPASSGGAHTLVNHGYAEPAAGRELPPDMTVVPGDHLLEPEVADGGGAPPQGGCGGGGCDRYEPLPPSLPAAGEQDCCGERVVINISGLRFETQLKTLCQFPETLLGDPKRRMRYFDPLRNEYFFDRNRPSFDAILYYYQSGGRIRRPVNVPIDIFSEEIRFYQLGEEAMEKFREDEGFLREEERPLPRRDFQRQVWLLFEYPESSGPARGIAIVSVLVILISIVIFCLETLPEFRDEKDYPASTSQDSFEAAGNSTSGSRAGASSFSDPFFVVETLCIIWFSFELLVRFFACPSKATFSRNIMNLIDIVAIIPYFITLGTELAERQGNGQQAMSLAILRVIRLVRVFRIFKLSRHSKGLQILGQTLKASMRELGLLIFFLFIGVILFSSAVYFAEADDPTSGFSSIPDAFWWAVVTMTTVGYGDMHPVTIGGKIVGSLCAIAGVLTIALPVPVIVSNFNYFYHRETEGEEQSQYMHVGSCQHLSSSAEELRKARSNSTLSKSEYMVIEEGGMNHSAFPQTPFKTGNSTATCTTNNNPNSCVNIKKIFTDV
Chain of human Kv1.1 (human) (Q09470 whole entry): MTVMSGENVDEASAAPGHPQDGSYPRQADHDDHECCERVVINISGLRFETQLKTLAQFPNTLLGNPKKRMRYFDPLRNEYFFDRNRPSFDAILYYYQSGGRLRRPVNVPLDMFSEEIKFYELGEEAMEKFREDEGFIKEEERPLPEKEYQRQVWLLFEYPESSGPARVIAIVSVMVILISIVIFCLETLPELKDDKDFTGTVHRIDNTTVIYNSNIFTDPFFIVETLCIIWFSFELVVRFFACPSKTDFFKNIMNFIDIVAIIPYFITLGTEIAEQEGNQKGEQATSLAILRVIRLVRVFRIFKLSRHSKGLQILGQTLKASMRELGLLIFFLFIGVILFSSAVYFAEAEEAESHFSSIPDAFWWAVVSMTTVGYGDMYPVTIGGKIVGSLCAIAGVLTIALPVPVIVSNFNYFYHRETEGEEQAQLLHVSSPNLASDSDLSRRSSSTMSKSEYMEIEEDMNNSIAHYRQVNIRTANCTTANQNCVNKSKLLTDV

B1: KB_A07 IgG1 (EETI-II fusion) (antibody, V domains shown)
VH: EVQLVESGGGLVRPGGSLRLSCAASGFTFSSYAMSWVRQAPGKGLEWVSAISGSGGSTYYADSVKGRFTISRDNTKNSLYLQMTSLRADDTAFYYCVKDFGPGYGTGWFDYWGPGTLVTVSS
VL: YLNWYQQKPGKAPKLLIYAAGVCPRILMRCKQDSDCLAGCVCGPNGFCGSRSGVPSRFSGSGSGTDFTLTISSLQPEDFATYYCQQGASPPYTFGQGTKVEIKR
- IC50, channel current, QPatch patch clamp (human Kv1.1 (human)): > 10000 nM
- IC50, channel current, QPatch patch clamp (human Kv1.3 (human) [1]): > 10000 nM
- IC50, huKv1.3 current, QPatch patch clamp (human Kv1.3 (human) [1]): > 10000 nM
- % ASIC1a current remaining at 6 µM, QPatch (human ASIC1a (human)): 70.9%

B2: C09 (EET 5-3 KnotBody) (scFv, V domains shown)
VH: B1 VH
VL: SEAPRQRVTITCGGKRCGPNGFCGSGSDGGVCPRILMRCKQDSDCLAGCTSNWYQQKPGQAPVLVVQDDSVRPSGIPERFSGSNSGNTATLTISRVEAGDGADYYCQVWDISSDLGVFGGGTKLTVLG
- ELISA signal (trypsin [2]): 9820

B3: KB_A12_Odk2 short (antibody, V domains shown)
VH: B1 VH
VL: NWYQQLPGKAPKLLIYAAGRVKCRGSPQCIQPCKDAGMRFGKCMNGKCHCTPKANSGVSDRFSAAKSGTSASLAINGLRSEDEADYYCAAWDDSLNGYVFGTGTKLTVLG
- IC50, huKv1.3 current, QPatch patch clamp (human Kv1.3 (human) [3]): 64 nM
- Kv1.1 IC50, QPatch patch clamp (human Kv1.1 (human)): 380 nM
- Fold difference (Kv1.1 IC50 against Kv1.3 IC50) (human Kv1.3 (human) [1]): 8 fold
- Kv1.3 IC50, QPatch patch clamp (human Kv1.3 (human) [1]): 49 nM

B4: F03 (EET 5-3 KnotBody) (scFv, V domains shown)
VH: B1 VH
VL: AVNWYQQLPGRAPKLLIYAAGGCGPNGFCGSGGDGGVCPRILMRCKQDSDCLAGCGAHSGIPERFSGSKSGTSASLAISGLRSEDEADYYCAAWDDSLNGWVFGGGTKVTVLG
- ELISA signal (trypsin [2]): 68000

B5: KB_A07 scFv-Fc displayed on HEK293 cells (Fc fusion)
VH: B1 VH
VL: DIQMTQSPSSLSASVGDRVTITCRASQSISSYLNWYQQKPGKAPKLLIYAAGVCPRILMRCKQDSDCLAGCVCGPNGFCGSRSGVPSRFSGSGSGTDFTLTISSLQPEDFATYYCQQGASPPYTFGQGTKVEIKRT
- % of transfected HEK293 cells dual stained for Fc and trypsin (trypsin [4]): 34%
- Q2, share of cells stained by both anti-Fc-PE (FL2) and biotinylated trypsin/streptavidin-APC (FL4) (trypsin [5]): 33.8%

B6: KB_A12_Odk2 (antibody, V domains shown)
VH: B1 VH
VL: QSVLTQPPSVSEAPRQRVTITCSGSSSNIGNNAVNWYQQLPGKAPKLLIYAAGRGVPTDVKCRGSPQCIQPCKDAGMRFGKCMNGKCHCTPKANSGVSDRFSAAKSGTSASLAINGLRSEDEADYYCAAWDDSLNGYVFGTGTKLTVLG
- IC50, huKv1.3 current, QPatch patch clamp (human Kv1.3 (human) [3]): 222 nM
- Kv1.1 IC50, QPatch patch clamp (human Kv1.1 (human)): 2750 nM
- Fold difference (Kv1.1 IC50 against Kv1.3 IC50) (human Kv1.3 (human) [1]): 6 fold
- Kv1.3 IC50, QPatch patch clamp (human Kv1.3 (human) [1]): 457 nM

B7: E01 (EET 5-3 KnotBody) (scFv, V domains shown)
VH: B1 VH
VL: AVNWYQQLPGKAPKLLIYAAGGCGPNGFCGSGSDGGVCPRILMRCKQDSDCLAGCGIHSGVSDRFSDSKSGTSASLAISGLQSEDEADYYCAAWDDSLNGYVFGTGTKLTVLG
- ELISA signal (trypsin [2]): 128000

B8: G11 (EET 5-3 KnotBody) (scFv, V domains shown)
VH: B1 VH
VL: AVNWYQQLPGKAPKLLIYAAGGCGPNGFCGSGSDGGVCPRILMRCKQDSDCLAGCGQSSGVSDRFSGSKSGTSATLDITGLQTGDEADYYCGTWDNSLSVGVFGGGTKVTVLG
- ELISA signal (trypsin [2]): 27600

B9: KB_A12_ShK (antibody, V domains shown)
VH: B1 VH
VL: NWYQQLPGKAPKLLIYAAGRRSCIDTIPKSRCTAFQCKHSMKYRLSFCRKTCGTCANSGVSDRFSAAKSGTSASLAINGLRSEDEADYYCAAWDDSLNGYVFGTGTKLTVLG
- IC50, huKv1.3 current, QPatch patch clamp (human Kv1.3 (human) [3]): 8.6 nM
- Kv1.1 IC50, QPatch patch clamp (human Kv1.1 (human)): 40 nM
- Fold difference (Kv1.1 IC50 against Kv1.3 IC50) (human Kv1.3 (human) [1]): 3 fold
- IC50, huKv1.3 current, QPatch patch clamp (human Kv1.3 (human) [1]): 20 nM
- Kv1.3 IC50, QPatch patch clamp (human Kv1.3 (human) [1]): 13 nM

B10: E09 (EET 5-3 KnotBody) (scFv, V domains shown)
VH: B1 VH
VL: B7 VL with I57T, H58Q, V61I, S62P, D63E, D67G, Q82R, N99R, G100A, K108Q
- ELISA signal (trypsin [2]): 70300

B11: KB_A12_KTX (antibody)
VH: B1 VH
VL: QSVLTQPPSVSEAPRQRVTITCSGSSSNIGNNAVNWYQQLPGKAPKLLIYAAGRGVEINVKCSGSPQCLKPCKDAGMRFGKCMNRKCHCTPKANSGVSDRFSAAKSGTSASLAINGLRSEDEADYYCAAWDDSLNGYVFGTGTKLTVLGQP
- IC50, huKv1.3 current, QPatch patch clamp (human Kv1.3 (human) [3]): 430 nM
- Kv1.1 IC50, QPatch patch clamp (human Kv1.1 (human)): 4800 nM
- Fold difference (Kv1.1 IC50 against Kv1.3 IC50) (human Kv1.3 (human) [1]): 3 fold
- IC50, huKv1.3 current, QPatch patch clamp (human Kv1.3 (human) [1]): > 10000 nM
- Kv1.3 IC50, QPatch patch clamp (human Kv1.3 (human) [1]): 1540 nM

B12: KB_A12_ADWX1 short (antibody, V domains shown)
VH: B1 VH
VL: B3 VL with R24K, G25H, P27R, I30L, Q31K, M44T
- IC50, huKv1.3 current, QPatch patch clamp (human Kv1.3 (human) [3]): 170 nM
- Kv1.1 IC50, QPatch patch clamp (human Kv1.1 (human)): 1400 nM
- Fold difference (Kv1.1 IC50 against Kv1.3 IC50) (human Kv1.3 (human) [1]): 6 fold
- Kv1.3 IC50, QPatch patch clamp (human Kv1.3 (human) [1]): 251 nM

B13: F01 (EET 5-3 KnotBody) (scFv, V domains shown)
VH: B1 VH
VL: YLNWYQQKPGKAPKLLIDAAGECGPNGFCGSGSDGGVCPRINMRCKQDSDCLAGCGRDSGVPSRFSGSGSGTDFTLTISSLQPEDFATYYCQQSYSTPWTFGQGTKVEIKR
- ELISA signal (trypsin [2]): 102000

B14: KB_A12_ADWX1 (antibody, V domains shown)
VH: B1 VH
VL: QSVLTQPPSVSEAPRQRVTITCSGSSSNIGNNAVNWYQQLPGKAPKLLIYAAGRVGINVKCKHSRQCLKPCKDAGMRFGKCTNGKCHCTPKANSGVSDRFSAAKSGTSASLAINGLRSEDEADYYCAAWDDSLNGYVFGTGTKLTVLG
- IC50, huKv1.3 current, QPatch patch clamp (human Kv1.3 (human) [3]): 270 nM

B15: F07 (EET 5-3 KnotBody) (scFv, V domains shown)
VH: B1 VH
VL: B7 VL with I57G, H58Q, S62P, D67G, G80R, G100A, L109V
- ELISA signal (trypsin [2]): 72800

B16: E08 (EET 5-3 KnotBody) (scFv, V domains shown)
VH: B1 VH
VL: B7 VL with H58Q, V61I, S62P, D63E, D67G, Q82R, S97N, N99S
- ELISA signal (trypsin [2]): 121000

B17: KB_A12 IgG1 (EETI-II fusion) (antibody, V domains shown)
VH: B1 VH
VL: AVNWYQQLPGKAPKLLIYAAGRCPRILMRCKQDSDCLAGCVCGPNGFCGANSGVSDRFSAAKSGTSASLAINGLRSEDEADYYCAAWDDSLNGYVFGTGTKLTVLG
- IC50, channel current, QPatch patch clamp (human Kv1.1 (human)): > 10000 nM
- IC50, channel current, QPatch patch clamp (human Kv1.3 (human) [1]): > 10000 nM
- IC50, huKv1.3 current, QPatch patch clamp (human Kv1.3 (human) [1]): > 10000 nM
- % ASIC1a current remaining at 3.3 µM, QPatch (human ASIC1a (human)): 67.4%

B18: E03 (EET 5-3 KnotBody) (scFv, V domains shown)
VH: B1 VH
VL: AVNWYQQLPGKAPKLLIYAAGGCGPNGFCGSGSDGGVCPRILMRCKQDSDCLAGCGRNSGIPERFSGSKSGHTATLTISRVEAGDEADYYCQVWDSSSDHVLFGGGTKLTVLG
- ELISA signal (trypsin [2]): 82500

B19: KB_A12 scFv-Fc displayed on HEK293 cells (Fc fusion)
VH: B1 VH
VL: QSVLTQPPSVSEAPRQRVTITCSGSSSNIGNNAVNWYQQLPGKAPKLLIYAAGRCPRILMRCKQDSDCLAGCVCGPNGFCGANSGVSDRFSAAKSGTSASLAINGLRSEDEADYYCAAWDDSLNGYVFGTGTKLTVLGQP
- % of transfected HEK293 cells dual stained for Fc and trypsin (trypsin [4]): 11%
- Q2, share of cells stained by both anti-Fc-PE (FL2) and biotinylated trypsin/streptavidin-APC (FL4) (trypsin [5]): 11.2%

B20: KB_A12_HsTx1 (antibody, V domains shown)
VH: B1 VH
VL: NWYQQLPGKAPKLLIYAAGRASCRTPKDCADPCRKETGCPYGKCMNRKCKCNRCANSGVSDRFSAAKSGTSASLAINGLRSEDEADYYCAAWDDSLNGYVFGTGTKLTVLG
- IC50, huKv1.3 current, QPatch patch clamp (human Kv1.3 (human) [3]): 3.9 nM
- Kv1.1 IC50, QPatch patch clamp (human Kv1.1 (human)): 650 nM
- Fold difference (Kv1.1 IC50 against Kv1.3 IC50) (human Kv1.3 (human) [1]): 43 fold
- Kv1.3 IC50, QPatch patch clamp (human Kv1.3 (human) [1]): 15 nM

B21: E05 (EET 5-3 KnotBody) (scFv, V domains shown)
VH: B1 VH
VL: B4 VL with R11K, G33S, H58Q, R82Q, D88H, W101Y, G105T
- ELISA signal (trypsin [2]): 119000

B22: KB_A12_Vm24 (antibody, V domains shown)
VH: B1 VH
VL: QSVLTQPPSVSEAPRQRVTITCSGSSSNIGNNAVNWYQQLPGKAPKLLIYAAGRAAAISCVGSPECPPKCRAQGCKNGKCMNRKCKCYYCANSGVSDRFSAAKSGTSASLAINGLRSEDEADYYCAAWDDSLNGYVFGTGTKLTVLG
- IC50, huKv1.3 current, QPatch patch clamp (human Kv1.3 (human) [3]): 16 nM
- Kv1.1 IC50, QPatch patch clamp (human Kv1.1 (human)): 1220 nM
- Fold difference (Kv1.1 IC50 against Kv1.3 IC50) (human Kv1.3 (human) [1]): 102 fold
- Kv1.3 IC50, QPatch patch clamp (human Kv1.3 (human) [1]): 12 nM

B23: KB_A12_AnTx-N17A/F32T (antibody, V domains shown)
VH: B1 VH
VL: QSVLTQPPSVSEAPRQRVTITCSGSSSNIGNNAVNWYQQLPGKAPKLLIYAAGRQKECTGPQHCTNFCRKAKCTHGKCMNRKCKCTNCKANSGVSDRFSAAKSGTSASLAINGLRSEDEADYYCAAWDDSLNGYVFGTGTKLTVLG
- IC50, huKv1.3 current, QPatch patch clamp (human Kv1.3 (human) [3]): 85 nM
- Kv1.1 IC50, QPatch patch clamp (human Kv1.1 (human)): 10300 nM
- Fold difference (Kv1.1 IC50 against Kv1.3 IC50) (human Kv1.3 (human) [1]): 94 fold
- Kv1.3 IC50, QPatch patch clamp (human Kv1.3 (human) [1]): 110 nM
